Data reported in paper PMC7839234.

What was measured:
Type in all cases: cell-based, Homo sapiens
Settings in all cases: sodium (lithium also drives uptake)
[1] = test system: C[N+](C)(C)C[C@H](O)CC(=O)[O-]; assay: radiolabelled uptake kinetics
CN(CC(=O)O)C(=N)N = assay: radiolabelled uptake kinetics in transfected HEK293 Flp-In cells
[2] = test system: NCCC(=O)N[C@@H](Cc1cnc[nH]1)C(=O)O; assay: as above
[3] = test system: C[N+](C)(C)[C@@H](Cc1c[nH]c(=S)[nH]1)C(=O)[O-]; assay: as above

## SLC22A15 (Homo sapiens)
[1]
  Km: 99 ± 94 µM
CN(CC(=O)O)C(=N)N
  Km: 291 ± 124 µM
[2]
  Km: 510 ± 175 µM
[3]
  Km: 354 ± 95 µM
